The text below walks through data of patent US20240417459A1 (CELLDEX THERAPEUTICS, published 2024).

The test has as its target T1, human ILT4 expressed on HEK293 cells (human, UniProt Q8N423 22-597).
T1 construct: also called LILRB2; LIR2
Nature of the test: bifunctional flow cytometry: bispecific bound to HEK293 cells expressing human ILT4, then human PD-L1-msFc detected with PE anti-mouse IgG Fc. The protocol:
Binding of bispecific constructs to ILT4 and PD-L1 was assessed using HEK293 cells expressing human ILT4. In brief, dilutions of the bispecific constructs were allowed to bind to the ILT4 expressing cell before adding human PD-L1-msFc that was detected with PE labeled goat anti-mouse IgG Fc-specific probe.
In general terms: Flow cytometry measures light scatter and fluorescence of single cells or particles in a stream.

T1 sequence (Q8N423 other isoform, or with tags, fused parts or gaps limits assumed): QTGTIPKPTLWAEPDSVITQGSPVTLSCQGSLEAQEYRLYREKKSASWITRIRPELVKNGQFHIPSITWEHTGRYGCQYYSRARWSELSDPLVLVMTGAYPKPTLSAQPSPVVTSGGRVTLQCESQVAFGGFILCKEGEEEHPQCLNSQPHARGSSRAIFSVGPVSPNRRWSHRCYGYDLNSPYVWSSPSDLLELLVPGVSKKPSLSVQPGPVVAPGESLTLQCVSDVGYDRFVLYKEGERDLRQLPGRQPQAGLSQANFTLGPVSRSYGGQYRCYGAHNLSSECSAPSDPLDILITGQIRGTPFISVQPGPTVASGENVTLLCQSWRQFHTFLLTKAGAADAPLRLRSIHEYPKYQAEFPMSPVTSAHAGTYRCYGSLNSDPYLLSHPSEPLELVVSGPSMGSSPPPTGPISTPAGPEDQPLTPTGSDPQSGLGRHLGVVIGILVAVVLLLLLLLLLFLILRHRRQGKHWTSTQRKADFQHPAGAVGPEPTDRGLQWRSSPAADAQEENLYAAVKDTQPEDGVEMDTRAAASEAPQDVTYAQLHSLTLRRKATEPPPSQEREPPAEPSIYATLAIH

B1: 9H9-7B1 HL (bispecific antibody, human IgG1, kappa)
heavy: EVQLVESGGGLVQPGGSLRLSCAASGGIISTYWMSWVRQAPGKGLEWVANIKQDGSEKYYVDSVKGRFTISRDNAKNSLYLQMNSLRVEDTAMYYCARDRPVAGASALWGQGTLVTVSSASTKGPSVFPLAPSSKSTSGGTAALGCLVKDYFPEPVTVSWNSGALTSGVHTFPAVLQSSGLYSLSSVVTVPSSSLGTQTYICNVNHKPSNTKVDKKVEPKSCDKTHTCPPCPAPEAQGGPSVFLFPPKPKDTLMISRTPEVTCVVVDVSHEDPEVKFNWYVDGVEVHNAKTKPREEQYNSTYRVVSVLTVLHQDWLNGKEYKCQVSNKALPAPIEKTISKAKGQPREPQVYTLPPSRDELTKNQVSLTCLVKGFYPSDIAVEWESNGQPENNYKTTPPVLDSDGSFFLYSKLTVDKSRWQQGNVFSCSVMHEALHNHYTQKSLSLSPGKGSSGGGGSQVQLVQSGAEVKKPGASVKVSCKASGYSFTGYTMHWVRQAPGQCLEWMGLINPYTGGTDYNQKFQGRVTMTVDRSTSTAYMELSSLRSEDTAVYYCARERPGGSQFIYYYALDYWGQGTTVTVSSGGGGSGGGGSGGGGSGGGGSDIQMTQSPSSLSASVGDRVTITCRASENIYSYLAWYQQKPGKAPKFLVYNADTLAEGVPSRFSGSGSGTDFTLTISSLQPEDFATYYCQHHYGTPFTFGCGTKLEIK
light: DIQMTQSPSTLSASVGDRVTITCRASQSISGWLAWYQQKPGKAPKLLIYKASSLESGVPSRFSGSGSGTEFTLTISSLQPDDFATYYCQQYYGSSRTFGQGTNVEIKRTVAAPSVFIFPPSDEQLKSGTASVVCLLNNFYPREAKVQWKVDNALQSGNSQESVTEQDSKDSTYSLSSTLTLSKADYEKHKVYACEVTHQGLSSPVTKSFNRGEC
notes: Tetravalent bispecific: anti-PD-L1 9H9 on a mutated human IgG1 (AQQ Fc) with the 7B1 scFv (VH-VL) at the C-terminus of the heavy chain; also called 9H9 AQQ-7B1 H2L1; PD-L1xILT4 bispecific antibody
Consider B1, for which the binding result is “binds”.

B2: 9H9-7B1 LH (bispecific antibody, human IgG1, kappa)
heavy: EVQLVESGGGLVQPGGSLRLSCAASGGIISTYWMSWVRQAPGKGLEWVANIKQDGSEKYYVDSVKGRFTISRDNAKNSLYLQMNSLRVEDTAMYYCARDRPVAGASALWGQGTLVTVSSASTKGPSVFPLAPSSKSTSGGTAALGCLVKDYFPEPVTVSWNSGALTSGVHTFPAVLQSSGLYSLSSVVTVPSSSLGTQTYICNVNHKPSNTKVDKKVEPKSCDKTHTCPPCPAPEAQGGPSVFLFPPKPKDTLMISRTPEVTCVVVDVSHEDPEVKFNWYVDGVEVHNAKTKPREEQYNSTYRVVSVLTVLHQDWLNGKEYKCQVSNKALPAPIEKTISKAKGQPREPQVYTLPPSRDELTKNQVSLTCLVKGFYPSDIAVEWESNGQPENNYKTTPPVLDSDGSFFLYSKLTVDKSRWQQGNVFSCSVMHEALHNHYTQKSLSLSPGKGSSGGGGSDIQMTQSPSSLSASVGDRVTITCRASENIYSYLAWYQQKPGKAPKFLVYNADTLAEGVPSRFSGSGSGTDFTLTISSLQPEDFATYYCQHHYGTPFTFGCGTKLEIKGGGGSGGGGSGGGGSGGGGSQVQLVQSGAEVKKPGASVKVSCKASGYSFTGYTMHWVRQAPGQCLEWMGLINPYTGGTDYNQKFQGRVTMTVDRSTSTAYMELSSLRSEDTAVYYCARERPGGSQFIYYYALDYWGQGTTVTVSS
light: DIQMTQSPSTLSASVGDRVTITCRASQSISGWLAWYQQKPGKAPKLLIYKASSLESGVPSRFSGSGSGTEFTLTISSLQPDDFATYYCQQYYGSSRTFGQGTNVEIKRTVAAPSVFIFPPSDEQLKSGTASVVCLLNNFYPREAKVQWKVDNALQSGNSQESVTEQDSKDSTYSLSSTLTLSKADYEKHKVYACEVTHQGLSSPVTKSFNRGEC
notes: Tetravalent bispecific as 9H9-7B1 HL, but with the scFv in the VL-VH orientation; also called 9H9 AQQ-7B1 L1H2; PD-L1xILT4 bispecific antibody
B2: the binding result is listed as “binds”.
